From patent US20250262210A1 (TRUSTEES OF COLUMBIA UNIVERSITY IN THE CITY OF NEW YORK, published 2025) come the findings set out here.

The target of one test is T1, LZTR1 R810W-FLAG (human, UniProt Q8N653 1-840).
T1 construct: Stably expressed in U87 cells by lentivirus; also called LZTR1-FLAG-R810W; LZTR1 RW; not shown: FLAG tag
T1 sequence (looked up): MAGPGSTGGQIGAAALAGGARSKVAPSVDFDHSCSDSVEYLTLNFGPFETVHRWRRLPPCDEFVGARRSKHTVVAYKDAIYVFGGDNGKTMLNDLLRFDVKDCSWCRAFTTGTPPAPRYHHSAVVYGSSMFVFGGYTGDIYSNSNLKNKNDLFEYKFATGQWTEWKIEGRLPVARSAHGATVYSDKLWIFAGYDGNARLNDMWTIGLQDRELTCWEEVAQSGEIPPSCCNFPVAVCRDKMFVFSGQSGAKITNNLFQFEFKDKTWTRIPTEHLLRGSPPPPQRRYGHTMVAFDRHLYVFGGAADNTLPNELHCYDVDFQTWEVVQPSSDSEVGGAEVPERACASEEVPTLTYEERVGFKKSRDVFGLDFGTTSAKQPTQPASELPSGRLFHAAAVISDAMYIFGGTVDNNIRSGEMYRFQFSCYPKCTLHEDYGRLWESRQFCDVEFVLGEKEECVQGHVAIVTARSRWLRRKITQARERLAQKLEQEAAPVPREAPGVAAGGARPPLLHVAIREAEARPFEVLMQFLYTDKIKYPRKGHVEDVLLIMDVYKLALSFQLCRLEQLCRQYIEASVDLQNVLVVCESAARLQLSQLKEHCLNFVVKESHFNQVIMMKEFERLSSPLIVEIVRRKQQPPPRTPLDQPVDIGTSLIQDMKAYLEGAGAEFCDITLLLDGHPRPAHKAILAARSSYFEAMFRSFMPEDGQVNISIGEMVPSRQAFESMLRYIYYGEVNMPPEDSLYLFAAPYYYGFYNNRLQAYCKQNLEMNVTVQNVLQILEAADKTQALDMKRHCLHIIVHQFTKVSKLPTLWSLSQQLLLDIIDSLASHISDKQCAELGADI
The test is described as follows: IP/MS, LZTR1 R810W-FLAG, U87. The gist of the method:
(§1)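 Extracted peptides in 3% acetonitrile/0.1% formic acid ran on a 50 cm C18 column into an Orbitrap Fusion, with MaxQuant identification and spectral counting.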

The next test addresses T2, LZTR1-FLAG (human, UniProt Q8N653 1-840).
T2 construct: Expressed in HEK 293T, HeLa or U87 cells; used as cell lysate; also called LZTR1 wild type-FLAG; LZTR1 WT; not shown: FLAG tag at the C-terminus
T2 sequence (looked up): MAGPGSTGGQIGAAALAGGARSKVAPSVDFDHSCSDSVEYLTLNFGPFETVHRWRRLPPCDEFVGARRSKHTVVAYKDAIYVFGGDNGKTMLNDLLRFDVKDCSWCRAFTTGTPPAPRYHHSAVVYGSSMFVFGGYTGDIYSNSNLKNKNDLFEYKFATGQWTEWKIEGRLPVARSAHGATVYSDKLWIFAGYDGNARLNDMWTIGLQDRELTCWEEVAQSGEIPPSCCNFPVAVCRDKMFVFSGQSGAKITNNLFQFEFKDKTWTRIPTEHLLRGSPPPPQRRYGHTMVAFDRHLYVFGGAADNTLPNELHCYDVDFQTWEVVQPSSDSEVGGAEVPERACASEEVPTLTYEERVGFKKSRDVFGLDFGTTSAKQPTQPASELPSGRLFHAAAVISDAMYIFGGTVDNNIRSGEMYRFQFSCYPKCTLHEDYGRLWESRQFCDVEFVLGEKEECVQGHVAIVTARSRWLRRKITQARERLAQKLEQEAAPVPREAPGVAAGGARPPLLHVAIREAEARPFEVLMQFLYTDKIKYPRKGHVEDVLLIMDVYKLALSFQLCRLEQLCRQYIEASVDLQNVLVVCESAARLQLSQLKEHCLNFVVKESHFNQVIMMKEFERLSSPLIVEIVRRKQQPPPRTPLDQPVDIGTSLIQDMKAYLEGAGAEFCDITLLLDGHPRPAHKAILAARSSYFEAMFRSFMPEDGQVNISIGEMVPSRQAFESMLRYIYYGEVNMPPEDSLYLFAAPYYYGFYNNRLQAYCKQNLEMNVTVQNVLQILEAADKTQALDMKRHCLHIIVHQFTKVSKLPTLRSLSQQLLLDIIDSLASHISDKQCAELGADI
The test is described as follows: IP/MS, LZTR1 wild type-FLAG, U87. The gist of the method:
as §1

B1: CY P51A1 (other, human, UniProt Q16850 1-509, looked up)
chain: MAAAAGMLLLGLLQAGGSVLGQAMEKVTGGNLLSMLLIACAFTLSLVYLIRLAAGHLVQLPAGVKSPPYIFSPIPFLGHAIAFGKSPIEFLENAYEKYGPVFSFTMVGKTFTYLLGSDAAALLFNSKNEDLNAEDVYSRLTTPVFGKGVAYDVPNPVFLEQKKMLKSGLNIAHFKQHVSIIEKETKEYFESWGESGEKNVFEALSELIILTASHCLHGKEIRSQLNEKVAQLYADLDGGFSHAAWLLPGWLPLPSFRRRDRAHREIKDIFYKAIQKRRQSQEKIDDILQTLLDATYKDGRPLTDDEVAGMLIGLLLAGQHTSSTTSAWMGFFLARDKTLQKKCYLEQKTVCGENLPPLTYDQLKDLNLLDRCIKETLRLRPPIMIMMRMARTPQTVAGYTIPPGHQVCVSPTVNQRLKDSWVERLDFNPDRYLQDNPASGEKFAYVPFGAGRHRCIGENFAYVQIKTIWSTMLRLYEFDLIDGYFPTVNYTTMIHTPENPVIRYKRRSK
notes: Printed as CY P51A1; read as CYP51A1
B1: the binding result with LZTR1 R810W-FLAG and in the test with LZTR1-FLAG was “binds” in each case.

B2: DHX32 (other, human, UniProt Q7L7V1 1-743, looked up)
chain: MEEEGLECPNSSSEKRYFPESLDSSDGDEEEVLACEDLELNPFDGLPYSSRYYKLLKEREDLPIWKEKYSFMENLLQNQIVIVSGDAKCGKSAQVPQWCAEYCLSIHYQHGGVICTQVHKQTVVQLALRVADEMDVNIGHEVGYVIPFENCCTNETILRYCTDDMLQREMMSNPFLGSYGVIILDDIHERSIATDVLLGLLKDVLLARPELKLIINSSPHLISKLNSYYGNVPVIEVKNKHPVEVVYLSEAQKDSFESILRLIFEIHHSGEKGDIVVFLACEQDIEKVCETVYQGSNLNPDLGELVVVPLYPKEKCSLFKPLDETEKRCQVYQRRVVLTTSSGEFLIWSNSVRFVIDVGVERRKVYNPRIRANSLVMQPISQSQAEIRKQILGSSSSGKFFCLYTEEFASKDMTPLKPAEMQEANLTSMVLFMKRIDIAGLGHCDFMNRPAPESLMQALEDLDYLAALDNDGNLSEFGIIMSEFPLDPQLSKSILASCEFDCVDEVLTIAAMVTAPNCFSHVPHGAEEAALTCWKTFLHPEGDHFTLISIYKAYQDTTLNSSSEYCVEKWCRDYFLNCSALRMADVIRAELLEIIKRIELPYAEPAFGSKENTLNIKKALLSGYFMQIARDVDGSGNYLMLTHKQVAQLHPLSGYSITKKMPEWVLFHKFSISENNYIRITSEISPELFMQLVPQYYFSNLPPSESKDILQQVVDHLSPVSTMNKEQQMCETCPETEQRCTLQ
With B2, the binding result in the test with LZTR1 R810W-FLAG and in the test with LZTR1-FLAG was “binds” in each case.

B3: GLE1 (other, human, UniProt Q53GS7 1-698, looked up)
chain: MPSEGRCWETLKALRSSDKGRLCYYRDWLLRREDVLEECMSLPKLSSYSGWVVEHVLPHMQENQPLSETSPSSTSASALDQPSFVPKSPDASSAFSPASPATPNGTKGKDESQHTESMVLQSSRGIKVEGCVRMYELVHRMKGTEGLRLWQEEQERKVQALSEMASEQLKRFDEWKELKQHKEFQDLREVMEKSSREALGHQEKLKAEHRHRAKILNLKLREAEQQRVKQAEQERLRKEEGQIRLRALYALQEEMLQLSQQLDASEQHKALLKVDLAAFQTRGNQLCSLISGIIRASSESSYPTAESQAEAERALREMRDLLMNLGQEITRACEDKRRQDEEEAQVKLQEAQMQQGPEAHKEPPAPSQGPGGKQNEDLQVKVQDITMQWYQQLQDASMQCVLTFEGLTNSKDSQAKKIKMDLQKAATIPVSQISTIAGSKLKEIFDKIHSLLSGKPVQSGGRSVSVTLNPQGLDFVQYKLAEKFVKQGEEEVASHHEAAFPIAVVASGIWELHPRVGDLILAHLHKKCPYSVPFYPTFKEGMALEDYQRMLGYQVKDSKVEQQDNFLKRMSGMIRLYAAIIQLRWPYGNRQEIHPHGLNHGWRWLAQILNMEPLSDVTATLLFDFLEVCGNALMKQYQVQFWKMLILIKEDYFPRIEAITSSGQMGSFIRLKQFLEKCLQHKDIPVPKGFLTSSFWRS
With B3, the binding result in the test with LZTR1 R810W-FLAG and in the test with LZTR1-FLAG was “binds” in each case.

B4: FADS1 (other, human, UniProt O60427 1-444, looked up)
chain: MAPDPVAAETAAQGPTPRYFTWDEVAQRSGCEERWLVIDRKVYNISEFTRRHPGGSRVISHYAGQDATDPFVAFHINKGLVKKYMNSLLIGELSPEQPSFEPTKNKELTDEFRELRATVERMGLMKANHVFFLLYLLHILLLDGAAWLTLWVFGTSFLPFLLCAVLLSAVQAQAGWLQHDFGHLSVFSTSKWNHLLHHFVIGHLKGAPASWWNHMHFQHHAKPNCFRKDPDINMHPFFFALGKILSVELGKQKKKYMPYNHQHKYFFLIGPPALLPLYFQWYIFYFVIQRKKWVDLAWMITFYVRFFLTYVPLLGLKAFLGLFFIVRFLESNWFVWVTQMNHIPMHIDHDRNMDWVSTQLQATCNVHKSAFNDWFSGHLNFQIEHHLFPTMPRHNYHKVAPLVQSLCAKHGIEYQSKPLLSAFADIIHSLKESGQLWLDAYLHQ
Turning to B4, the binding result in the test with LZTR1 R810W-FLAG and in the test with LZTR1-FLAG was “binds” in each case.

B5: GBE1 (other, human, UniProt Q04446 2-702, looked up)
chain: AAPMTPAARPEDYEAALNAALADVPELARLLEIDPYLKPYAVDFQRRYKQFSQILKNIGENEGGIDKFSRGYESFGVHRCADGGLYCKEWAPGAEGVFLTGDFNGWNPFSYPYKKLDYGKWELYIPPKQNKSVLVPHGSKLKVVITSKSGEILYRISPWAKYVVREGDNVNYDWIHWDPEHSYEFKHSRPKKPRSLRIYESHVGISSHEGKVASYKHFTCNVLPRIKGLGYNCIQLMAIMEHAYYASFGYQITSFFAASSRYGTPEELQELVDTAHSMGIIVLLDVVHSHASKNSADGLNMFDGTDSCYFHSGPRGTHDLWDSRLFAYSSWEILRFLLSNIRWWLEEYRFDGFRFDGVTSMLYHHHGVGQGFSGDYSEYFGLQVDEDALTYLMLANHLVHTLCPDSITIAEDVSGMPALCSPISQGGGGFDYRLAMAIPDKWIQLLKEFKDEDWNMGDIVYTLTNRRYLEKCIAYAESHDQALVGDKSLAFWLMDAEMYTNMSVLTPFTPVIDRGIQLHKMIRLITHGLGGEGYLNFMGNEFGHPEWLDFPRKGNNESYHYARRQFHLTDDDLLRYKFLNNFDRDMNRLEERYGWLAAPQAYVSEKHEGNKIIAFERAGLLFIFNFHPSKSYTDYRVGTALPGKFKIVLDSDAAEYGGHQRLDHSTDFFSEAFEHNGRPYSLLVYIPSRVALILQNVDLPN
Take B5: the binding result with LZTR1 R810W-FLAG and with LZTR1-FLAG was “binds” each time.

B6: ELAC2 (other, human, UniProt Q9BQ52 17-826, looked up)
chain: SQGRTISQAPARRERPRKDPLRHLRTREKRGPSGCSGGPNTVYLQVVAAGSRDSGAALYVFSEFNRYLFNCGEGVQRLMQEHKLKVARLDNIFLTRMHWSNVGGLSGMILTLKETGLPKCVLSGPPQLEKYLEAIKIFSGPLKGIELAVRPHSAPEYEDETMTVYQIPIHSEQRRGKHQPWQSPERPLSRLSPERSSDSESNENEPHLPHGVSQRRGVRDSSLVVAFICKLHLKRGNFLVLKAKEMGLPVGTAAIAPIIAAVKDGKSITHEGREILAEELCTPPDPGAAFVVVECPDESFIQPICENATFQRYQGKADAPVALVVHMAPASVLVDSRYQQWMERFGPDTQHLVLNENCASVHNLRSHKIQTQLNLIHPDIFPLLTSFRCKKEGPTLSVPMVQGECLLKYQLRPRREWQRDAIITCNPEEFIVEALQLPNFQQSVQEYRRSAQDGPAPAEKRSQYPEIIFLGTGSAIPMKIRNVSATLVNISPDTSLLLDCGEGTFGQLCRHYGDQVDRVLGTLAAVFVSHLHADHHTGLPSILLQRERALASLGKPLHPLLVVAPNQLKAWLQQYHNQCQEVLHHISMIPAKCLQEGAEISSPAVERLISSLLRTCDLEEFQTCLVRHCKHAFGCALVHTSGWKVVYSGDTMPCEALVRMGKDATLLIHEATLEDGLEEEAVEKTHSTTSQAISVGMRMNAEFIMLNHFSQRYAKVPLFSPNFSEKVGVAFDHMKVCFGDFPTMPKLIPPLKALFAGDIEEMEERREKRELRQVRAALLSRELAGGLEDGEPQQKRAHTEEPQAKKVRAQ
For B6, the binding result with LZTR1 R810W-FLAG and with LZTR1-FLAG was “binds” each time.
